According to paper PMC4159615 (Developmental cell, 2014):
Substitutions are numbered along the chain they refer to. Numbers in names are those of the source. Each block holds one binder with its values, some of them ahead of it.

Legend:
[1] = biological target: T1, Chs5(1-299)/Bch1-N692I exomer complex (S. cerevisiae (yeast), UniProt Q12114 1-299; Q05029 1-724, N692I); assay: co-sedimentation
T1 sequence 1: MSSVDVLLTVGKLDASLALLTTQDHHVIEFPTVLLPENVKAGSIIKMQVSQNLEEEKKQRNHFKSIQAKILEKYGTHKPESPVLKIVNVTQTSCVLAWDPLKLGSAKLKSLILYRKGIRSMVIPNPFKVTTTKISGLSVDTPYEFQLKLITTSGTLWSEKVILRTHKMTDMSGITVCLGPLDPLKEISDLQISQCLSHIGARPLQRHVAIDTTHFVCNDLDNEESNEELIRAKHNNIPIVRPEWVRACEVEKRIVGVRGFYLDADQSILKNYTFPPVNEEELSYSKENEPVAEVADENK
T1 sequence 2: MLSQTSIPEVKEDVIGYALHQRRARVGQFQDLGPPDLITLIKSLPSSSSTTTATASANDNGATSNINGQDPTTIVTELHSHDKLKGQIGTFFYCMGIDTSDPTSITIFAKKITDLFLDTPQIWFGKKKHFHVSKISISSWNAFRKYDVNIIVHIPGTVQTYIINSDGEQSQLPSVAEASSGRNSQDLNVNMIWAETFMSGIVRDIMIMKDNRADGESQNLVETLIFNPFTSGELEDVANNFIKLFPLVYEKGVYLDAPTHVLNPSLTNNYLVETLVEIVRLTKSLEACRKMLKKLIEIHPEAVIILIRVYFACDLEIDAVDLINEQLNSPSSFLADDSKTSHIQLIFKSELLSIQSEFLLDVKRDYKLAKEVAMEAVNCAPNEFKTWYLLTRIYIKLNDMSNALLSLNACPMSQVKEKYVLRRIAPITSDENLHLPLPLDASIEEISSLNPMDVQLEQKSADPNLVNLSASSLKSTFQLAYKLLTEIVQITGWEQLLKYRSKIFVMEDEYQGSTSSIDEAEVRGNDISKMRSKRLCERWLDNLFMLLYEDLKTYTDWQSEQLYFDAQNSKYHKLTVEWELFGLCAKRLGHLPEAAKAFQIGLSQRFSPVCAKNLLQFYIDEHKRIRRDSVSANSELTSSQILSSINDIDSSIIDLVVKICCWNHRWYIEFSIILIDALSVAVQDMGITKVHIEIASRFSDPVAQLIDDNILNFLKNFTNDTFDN

[2] = biological target: T2, Chs5(1-299)-T92Y/Bch1-N692I exomer complex (S. cerevisiae (yeast), UniProt Q12114 1-299; Q05029 1-724, T92Y | N692I); assay: co-sedimentation
T2 sequence 1: T1 sequence 1 with T92Y
T2 sequence 2: T1 sequence 2

[3] = biological target: T3, Chs5(1-299)/Chs6 exomer complex (S. cerevisiae (yeast), UniProt Q12114 1-299; P40955 1-746); assay: co-sedimentation
T3 sequence (looked up) 1: T1 sequence 1
T3 sequence (looked up) 2: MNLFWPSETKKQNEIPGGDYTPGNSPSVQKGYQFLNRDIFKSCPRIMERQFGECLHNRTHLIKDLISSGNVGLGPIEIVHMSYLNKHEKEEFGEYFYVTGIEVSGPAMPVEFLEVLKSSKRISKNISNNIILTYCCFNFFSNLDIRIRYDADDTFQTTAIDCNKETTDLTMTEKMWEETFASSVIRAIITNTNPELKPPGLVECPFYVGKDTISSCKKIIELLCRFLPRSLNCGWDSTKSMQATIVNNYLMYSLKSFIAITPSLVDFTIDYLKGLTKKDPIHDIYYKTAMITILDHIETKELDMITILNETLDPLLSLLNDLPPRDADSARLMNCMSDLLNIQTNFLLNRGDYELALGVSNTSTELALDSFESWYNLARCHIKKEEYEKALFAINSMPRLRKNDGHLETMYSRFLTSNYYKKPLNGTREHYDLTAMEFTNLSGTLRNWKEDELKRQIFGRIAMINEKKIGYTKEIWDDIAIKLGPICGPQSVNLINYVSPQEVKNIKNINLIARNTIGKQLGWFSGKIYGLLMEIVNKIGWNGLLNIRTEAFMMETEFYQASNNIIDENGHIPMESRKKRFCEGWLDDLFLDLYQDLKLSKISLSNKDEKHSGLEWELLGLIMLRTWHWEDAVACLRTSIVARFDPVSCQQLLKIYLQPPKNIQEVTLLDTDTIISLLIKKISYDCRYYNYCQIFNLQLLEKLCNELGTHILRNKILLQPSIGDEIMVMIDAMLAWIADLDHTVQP

[4] = biological target: T4, Chs5(1-299)/Bch1 exomer complex (S. cerevisiae (yeast), UniProt Q12114 1-299; Q05029 1-724); assay: co-sedimentation
T4 sequence 1: T1 sequence 1
T4 sequence 2: T1 sequence 2 with I692N

[5] = biological target: T5, Chs5(1-299)-T92Y/Bch1 exomer complex (S. cerevisiae (yeast), UniProt Q12114 1-299; Q05029 1-724, T92Y); assay: co-sedimentation
T5 sequence 1: T1 sequence 1 with T92Y
T5 sequence 2: T1 sequence 2 with I692N

Bch1 = biological target: T6, Bch1 (S. cerevisiae (yeast), UniProt Q05029 1-724); assay: crystal structure
T6 sequence: T1 sequence 2 with I692N

crystal structure = biological target: the molecule itself; assay: crystal structure
[6] = biological target: T4, Chs5(1-299)/Bch1 exomer complex; assay: crystal structure

binding result [1]: binds
binding result [2]: binds
binding result [3]: binds
binding result [4]: binds
binding result [5]: binds
B1: myristoylated Arf1 (wild type), GTP-bound, anchored on liposomes (natural protein, yeast, UniProt P11076 1-181, looked up)
chain: MGLFASKLFSNLFGNKEMRILMVGLDGAGKTTVLYKLKLGEVITTIPTIGFNVETVQYKNISFTVWDVGGQDRIRSLWRHYYRNTEGVIFVVDSNDRSRIGEAREVMQRMLNEDELRNAAWLVFANKQDLPEAMSAAEITEKLGLHSIRNRPWFIQATCATSGEGLYEGLEWLSNSLKNST
modifications: myristoylated

binding result [4]: binds
B2: myristoylated Arf1-S98Y (natural protein, yeast, UniProt P11076 1-181, looked up)
chain: B1 chain with S98Y
modifications: myristoylated

binding result (Bch1): binds
B3: Chs5 (residues 1-299) (domain or fragment, S. cerevisiae (yeast), UniProt Q12114 1-299, looked up)
chain: T1 sequence 1
binding result (crystal structure): binds

binding result (Bch1): binds
stoichiometry N [6]: 2
B4: ΔN17-Arf1-Q71L bound to GMPPNP (domain or fragment, S. cerevisiae (yeast), UniProt P11076 18-181, looked up)
chain: MRILMVGLDGAGKTTVLYKLKLGEVITTIPTIGFNVETVQYKNISFTVWDVGGLDRIRSLWRHYYRNTEGVIFVVDSNDRSRIGEAREVMQRMLNEDELRNAAWLVFANKQDLPEAMSAAEITEKLGLHSIRNRPWFIQATCATSGEGLYEGLEWLSNSLKNST
